Assay results as given in patent US20260139057A1 (University of California, published 2026).
Residue numbers refer to the chain shown, from its start.

Tests used:
[1] = target: integrin αvβ6 ectodomain (immobilized) (human, UniProt P06756 31-992; P18564 22-709)
[2] = target: T1, recombinant human integrin αvβ8 ectodomain (human, UniProt P06756 31-992; P26012 43-681); test: cell-based or functional assay
[3] = target: T2, human integrin αvβ8 on transfected cells (CHO cells stably transfected; HEK 293 cells stably expressing αvβ8) (human, UniProt P06756 31-1048; P26012 43-769); test: flow cytometry on unfixed CHO cells expressing human αvβ8, antibody titrated, hyperbolic least-squares fit (m3 = KD); curves on D00025 [Cont.]
T2 construct: whole, on cells; also called CHO αvβ8 cells; αvβ8 expressing CHO cells
Experimental: (§1) FIG. 17: Characterization of cell surface binding of humanized affinity optimized anti-αvβ8 antibodies. The cell surface binding affinities of H4C8, H4G9, H4C10, H4G8 compared to HuC6D4F12 expressed as IgG4 (S228P to prevent arm exchange, R409K and L445P to reduce aggregation and to promote stability). […] Cell surface affinity was determined using the least-squares fit model based on the hyperbolic equation y=m1+m2*m0/(m3+m0), where y=MFI at different avb8 concentrations; m0=αvβ8 concentration; m1=MFI with no αvβ8; m2=MFI at saturation; and m3=KD.
(§2) FIG. 18: Binding characteristics of H4C8 of formalin fixed αvβ8 compared to HuC6D4F12 or ADWA11 2.4 (from Pat no. US2020/0079855 A1). CHO αvβ8 expressing cells were fixed in 2% buffered formalin in PBS for 15 min at RT and then stained at the indicated concentrations as described in FIG. 17. The binding affinities to unfixed or formalin fixed cells is shown. Cell surface affinity was determined using the least-squares fit model based on the hyperbolic equation y=m1+m2*m0/(m3+m0), where y=MFI at different αvβ8 concentrations; m0=αvβ8 concentration; m1=MFI with no αvβ8; m2=MFI at saturation; and m3=KD.

[4] = target: T2, human integrin αvβ8 on transfected …; test: flow cytometry on CHO cells expressing human αvβ8 fixed in 2% buffered formalin for 15 min, antibody titrated, hyperbolic least-squares fit (m3 = KD); curves on D00025 [Cont.]
Experimental: as §1, §2

[5] = target: T1, recombinant human integrin αvβ8 …; test: cell-based or functional assay; remark: listed apart in the source
[6] = target: T1, recombinant human integrin αvβ8 …; test: cell-based or functional assay; remark: listed apart in the source
[7] = target: T1, recombinant human integrin αvβ8 …; test: cell-based or functional assay; remark: listed apart in the source
[8] = target: T1, recombinant human integrin αvβ8 …; test: cell-based or functional assay; remark: listed apart in the source
[9] = target: T1, recombinant human integrin αvβ8 …; test: yeast-displayed scFv titrated with αvβ8 ectodomain, flow cytometry, hyperbolic fit
Experimental: After induction and screening of the pooled transformants for scFV expression using anti-V5 (clone SV5), the avb8 ectodomain was incubated with the yeast pool, washed and scFV which bound to αvβ8 were detected using anti-human αv (clone 8β8). After multiple rounds of selection by sorting yeast stained under conditions of increasing stringency (Low Ag concentration, short Kon and long Koff), individual clones were isolated, sequenced and tested for binding affinity. Shown are the sequences of VH and VL pairs enriched in the library. The binding affinities of representative yeast clones was determined using a least-squares fit model based on the hyperbolic equation y=m1+m2*m0/(m3+m0), where y=MFI at different αvβ8 concentrations; m0=αvβ8 concentration; m1=MFI with no αvβ8; m2=MFI at saturation; and m3=KD. […]
We then created a scFV yeast display library (Library 3) with degenerate positions coding for novel amino acids (i.e. not in germline human or mouse Ig sequence databases), back mutations to mouse from clone H1.1, as well as final humanization of Fr4 VH and VL based on the human germline (SEQ ID NO: 29, 30 and 32). […] After induction and screening of the pooled transformants for scFV expression using anti-V5 (clone SV5), the αvβ8 ectodomain was incubated with the yeast pool, washed and scFV which bound to αvβ8 were detected using anti-human αv (clone 8β8). […]

[10] = target: T1, recombinant human integrin αvβ8 …; test: MFI against concentration, fit y = m1 + m2*M0/(m3+M0), m3 = KD; paragraph 50 and paragraph 227 give these KD values for the yeast scFv with soluble αvβ8, the legend of FIG. 17 speaks of IgG4 on CHO αvβ8 cells
[11] = target: T1, recombinant human integrin αvβ8 …; test: KinExA; antibody format and antigen form not stated

T2 sequence (P06756 31-1048, chain 1 of 2): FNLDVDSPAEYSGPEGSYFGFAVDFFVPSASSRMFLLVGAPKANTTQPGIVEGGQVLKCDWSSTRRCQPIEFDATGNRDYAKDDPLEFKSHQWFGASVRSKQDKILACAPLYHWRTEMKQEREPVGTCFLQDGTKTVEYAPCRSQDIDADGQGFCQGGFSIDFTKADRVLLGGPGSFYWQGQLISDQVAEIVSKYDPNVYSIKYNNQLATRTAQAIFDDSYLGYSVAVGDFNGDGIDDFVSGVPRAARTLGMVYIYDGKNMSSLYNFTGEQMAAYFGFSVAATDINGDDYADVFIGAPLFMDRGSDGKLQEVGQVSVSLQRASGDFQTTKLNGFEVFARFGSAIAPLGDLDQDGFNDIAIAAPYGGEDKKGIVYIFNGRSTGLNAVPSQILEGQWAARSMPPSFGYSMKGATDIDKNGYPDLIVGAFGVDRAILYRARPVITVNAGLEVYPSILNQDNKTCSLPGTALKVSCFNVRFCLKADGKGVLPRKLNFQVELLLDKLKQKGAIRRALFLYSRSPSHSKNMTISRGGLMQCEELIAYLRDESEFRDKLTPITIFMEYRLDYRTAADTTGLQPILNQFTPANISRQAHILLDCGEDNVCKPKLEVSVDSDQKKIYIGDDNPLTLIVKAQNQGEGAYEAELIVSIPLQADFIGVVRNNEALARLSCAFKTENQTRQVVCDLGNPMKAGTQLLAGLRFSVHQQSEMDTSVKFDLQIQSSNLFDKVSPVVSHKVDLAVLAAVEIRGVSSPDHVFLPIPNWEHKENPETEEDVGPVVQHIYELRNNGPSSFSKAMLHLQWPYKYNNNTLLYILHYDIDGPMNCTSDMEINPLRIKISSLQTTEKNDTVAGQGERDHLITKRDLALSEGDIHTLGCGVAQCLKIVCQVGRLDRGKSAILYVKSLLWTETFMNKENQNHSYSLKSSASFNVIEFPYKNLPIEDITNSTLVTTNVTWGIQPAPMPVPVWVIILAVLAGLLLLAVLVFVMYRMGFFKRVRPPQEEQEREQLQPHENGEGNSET
T2 sequence (P26012 43-769, chain 2 of 2): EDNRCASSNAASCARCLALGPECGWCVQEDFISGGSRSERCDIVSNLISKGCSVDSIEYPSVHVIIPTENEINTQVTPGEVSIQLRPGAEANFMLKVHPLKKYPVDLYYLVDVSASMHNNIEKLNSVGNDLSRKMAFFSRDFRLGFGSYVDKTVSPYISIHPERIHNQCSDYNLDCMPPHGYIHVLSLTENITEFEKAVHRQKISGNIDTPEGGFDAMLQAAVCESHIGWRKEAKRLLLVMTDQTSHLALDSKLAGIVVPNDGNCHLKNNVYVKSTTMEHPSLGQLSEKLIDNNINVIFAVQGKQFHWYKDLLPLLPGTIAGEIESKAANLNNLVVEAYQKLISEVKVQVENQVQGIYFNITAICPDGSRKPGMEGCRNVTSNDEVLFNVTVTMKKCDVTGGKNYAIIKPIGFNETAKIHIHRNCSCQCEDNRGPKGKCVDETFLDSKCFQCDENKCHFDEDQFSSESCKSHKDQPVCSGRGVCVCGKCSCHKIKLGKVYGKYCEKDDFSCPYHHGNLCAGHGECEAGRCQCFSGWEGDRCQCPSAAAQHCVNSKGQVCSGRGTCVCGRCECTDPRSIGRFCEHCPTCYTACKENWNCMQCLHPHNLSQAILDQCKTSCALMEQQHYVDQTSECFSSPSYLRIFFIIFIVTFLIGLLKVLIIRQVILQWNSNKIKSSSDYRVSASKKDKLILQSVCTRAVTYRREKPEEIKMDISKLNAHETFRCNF
T1 sequence (P06756 31-992 limits assumed, chain 1 of 2): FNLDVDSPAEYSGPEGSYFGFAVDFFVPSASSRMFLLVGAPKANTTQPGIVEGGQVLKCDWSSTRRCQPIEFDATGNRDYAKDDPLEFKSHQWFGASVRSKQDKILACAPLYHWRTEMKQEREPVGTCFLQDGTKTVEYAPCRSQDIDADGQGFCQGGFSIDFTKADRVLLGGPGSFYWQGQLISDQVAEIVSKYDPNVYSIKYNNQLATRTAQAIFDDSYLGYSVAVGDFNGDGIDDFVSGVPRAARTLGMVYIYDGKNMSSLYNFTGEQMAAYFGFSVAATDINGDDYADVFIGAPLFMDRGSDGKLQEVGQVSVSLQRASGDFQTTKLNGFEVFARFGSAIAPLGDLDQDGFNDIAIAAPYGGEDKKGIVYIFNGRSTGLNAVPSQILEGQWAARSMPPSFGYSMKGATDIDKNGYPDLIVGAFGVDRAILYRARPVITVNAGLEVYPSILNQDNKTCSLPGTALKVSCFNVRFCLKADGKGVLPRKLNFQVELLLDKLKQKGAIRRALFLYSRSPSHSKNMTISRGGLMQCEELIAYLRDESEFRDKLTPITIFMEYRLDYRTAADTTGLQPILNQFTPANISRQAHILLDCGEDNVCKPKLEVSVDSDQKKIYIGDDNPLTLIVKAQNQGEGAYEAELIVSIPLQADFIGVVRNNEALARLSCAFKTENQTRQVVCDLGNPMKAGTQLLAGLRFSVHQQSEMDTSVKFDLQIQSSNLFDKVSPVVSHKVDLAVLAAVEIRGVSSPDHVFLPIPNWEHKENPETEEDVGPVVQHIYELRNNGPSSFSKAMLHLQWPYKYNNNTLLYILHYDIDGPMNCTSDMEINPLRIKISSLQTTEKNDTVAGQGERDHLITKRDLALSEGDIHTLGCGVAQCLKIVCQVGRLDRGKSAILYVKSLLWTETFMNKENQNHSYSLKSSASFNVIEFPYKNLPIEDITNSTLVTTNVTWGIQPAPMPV
T1 sequence (P26012 43-681 limits assumed, chain 2 of 2): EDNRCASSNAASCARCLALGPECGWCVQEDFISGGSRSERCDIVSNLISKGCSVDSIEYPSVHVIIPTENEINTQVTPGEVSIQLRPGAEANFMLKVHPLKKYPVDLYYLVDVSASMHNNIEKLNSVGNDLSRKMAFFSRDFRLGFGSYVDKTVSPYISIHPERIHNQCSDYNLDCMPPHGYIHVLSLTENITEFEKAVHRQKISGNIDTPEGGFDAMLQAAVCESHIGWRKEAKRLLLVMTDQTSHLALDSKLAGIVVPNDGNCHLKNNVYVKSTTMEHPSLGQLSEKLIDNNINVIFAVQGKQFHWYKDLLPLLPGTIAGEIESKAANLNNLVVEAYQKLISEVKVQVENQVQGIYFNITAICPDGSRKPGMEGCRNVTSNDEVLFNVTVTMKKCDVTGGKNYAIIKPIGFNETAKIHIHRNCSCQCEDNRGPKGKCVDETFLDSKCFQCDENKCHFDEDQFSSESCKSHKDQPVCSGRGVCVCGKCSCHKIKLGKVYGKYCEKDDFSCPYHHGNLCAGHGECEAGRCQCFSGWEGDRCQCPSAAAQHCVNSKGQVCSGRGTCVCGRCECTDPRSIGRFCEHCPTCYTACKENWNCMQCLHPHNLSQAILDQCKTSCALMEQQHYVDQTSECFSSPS
Sequence of integrin αvβ6 ectodomain (immobilized) (P06756 31-992, chain 1 of 2): as the sequence (P06756 31-992 limits assumed, chain 1 of 2) above
Sequence of integrin αvβ6 ectodomain (immobilized) (P18564 22-709, chain 2 of 2): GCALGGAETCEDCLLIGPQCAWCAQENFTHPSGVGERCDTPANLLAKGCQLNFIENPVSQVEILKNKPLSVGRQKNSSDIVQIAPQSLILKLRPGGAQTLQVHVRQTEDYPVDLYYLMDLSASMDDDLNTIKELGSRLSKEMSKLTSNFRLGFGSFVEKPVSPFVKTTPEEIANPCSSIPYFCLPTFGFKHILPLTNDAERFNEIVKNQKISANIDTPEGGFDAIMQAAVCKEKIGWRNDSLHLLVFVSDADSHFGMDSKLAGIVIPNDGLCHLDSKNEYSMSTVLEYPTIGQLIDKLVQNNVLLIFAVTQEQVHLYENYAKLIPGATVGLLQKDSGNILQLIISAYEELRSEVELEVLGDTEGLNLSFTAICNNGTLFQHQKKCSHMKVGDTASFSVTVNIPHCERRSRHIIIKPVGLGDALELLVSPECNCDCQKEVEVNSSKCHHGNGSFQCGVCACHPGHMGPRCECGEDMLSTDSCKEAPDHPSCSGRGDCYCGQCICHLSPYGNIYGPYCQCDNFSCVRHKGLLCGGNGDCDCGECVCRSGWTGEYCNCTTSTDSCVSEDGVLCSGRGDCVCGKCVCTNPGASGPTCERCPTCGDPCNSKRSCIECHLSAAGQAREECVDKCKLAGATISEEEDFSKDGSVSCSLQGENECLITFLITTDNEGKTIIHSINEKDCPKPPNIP

## 3G9 (anti-β6), mouse IgG2a (antibody)
[1]
  ED50 of the inhibition of αvβ6-mediated TGF-β activation (immobilized human αvβ6, TMLC GARP/L-TGF-β reporter cells): 0.22 µg/mL

B1: ADWA11 2.4 antibody (from US2020/0079855 A1) (antibody, V domains shown)
VH: EVQLVESGGGLVQPGGSLRLSCAASGFNIKDYYMNWVRQAPGKGLEWVGWIDPDQGNTIYEPKFQGRFTISADTSKNSAYLQMNSLRAEDTAVYYCARRLLMDYWGQGTLVTVSS
VL: DIQMTQSPSSLSASVGDRVTITCRSTKSLSHFNGNTYLFWYQQKPGKAPKRLIYYMSSLASGVPSRFSGSGSGTDFTLTISSLQPEDFATYYCQQSLEYPFTFGGGTKVEIKR
[2]
  EC50 of the inhibition of αvβ8-mediated TGF-β activation (TMLC GARP/TGF-β luciferase reporter cells on αvβ8-coated wells): 274 µg/mL
[3]
  Kd: 20 nM
[4]
  Kd: 56 nM

B2: HuF12 IgG2a (antibody)
heavy: QIQLVQSGAEVKKPGASVKISCKASGYTFTKYSMHWVRQAPGQGLEWVARINTETGEPTFADDFRGRFTVTLDTSTSTAYLEIRSLRSDDTAVYFCAIFYYGRDTWGQGTTLTVSSASTKGPSVFPLAPSSKSTSGGTAALGCLVKDYFPEPVTVSWNSGALTSGVHTFPAVLQSSGLYSLSSVVTVPSSSLGTQTYICNVNHKPSNTKVDKKIVPRDCGCKPCICTVPEVSSVFIFPPKPKDVLTITLTPKVTCVVVDISKDDPEVQFSWFVDDVEVHTAQTQPREEQFNSTFRSVSELPIMHQDWLNGKEFKCRVNSAAFPAPIEKTISKTKGRPKAPQVYTIPPPKEQMAKDKVSLTCMITDFFPEDITVEWQWNGQPAENYKNTQPIMDTDGSYFVYSKLNVQKSNWEAGNTFTCSVLHEGLHNHHTEKSLSHSPGK
VL: EIVMTQSPATLSVSPGERVTMSCKSSQSLLHSRSRKNYLAWYQQKPGQAPRLLIYWASTRESGVPARFSGSGSGTEFTLTISSVQSEDFAVYYCKQSYNLLSFGQGTVLEIKR
[5]
  ED50 of the inhibition of αvβ8-mediated TGF-β activation (immobilized αvβ8, TMLC GARP/L-TGF-β reporter cells): 0.02 µg/mL
[6]
  EC50 of inhibition of αvβ8-mediated TGF-β activation: 200 nM
[7]
  IC50 (read off the curve): ~0.3 µg/mL
[8]
  IC50 of the inhibition of TGF-β activation (TMLC GARP/TGF-β1 reporter cells on αvβ8-coated wells): 0.0922 µg/mL

B3: HuF12 scFv displayed on yeast (scFv, V domains shown)
VH: QIQLVQSGAEVKKPGASVKISCKASGYTFTKYSMHWVRQAPGQGLEWVARINTETGEPTFADDFRGRFTVTLDTSTSTAYLEIRSLRSDDTAVYFCAIFYYGRDTWGQGTTLTVSS
VL: B2 VL
notes: scFv in vector pYD4 on yeast; also called HuC6D4F12 scFV
[9]
  Kd: 6.7 nM
[10]
  Kd: 6.05 nM

B4: HuC6D4F12 (format not stated) (antibody, V domains shown)
VH: B3 VH
VL: B2 VL
notes: also called HuF12; huF12
[3]
  Kd: 2.6 nM
[4]
  Kd: 6.4 nM
[11]
  Kd: 0.00236 nM

B5: H4C8 scFv displayed on yeast (scFv, V domains shown)
VH: QVQLVQSGAEVKKPGASVKVSCKVSGYTLTRQSMHWVRQAPGKGLEWMGRINTETGEPTYAQKFQGRVTMTQDTSTDTAYMELSSLRSEDTAVYFCAIFYYGRDTWGQGTTVTVSS
VL: B2 VL with M21L, K24R, S62T, V84L, V108K, L109V
notes: scFv in pYD4 on yeast
[9]
  Kd: 3.8 nM
[10]
  Kd: 3.76 nM
